Measured values from patent US20240317880A1 (KLING BIOTHERAPEUTICS B V, published 2024).

How the values were obtained:
[1] = molecular target: T1, truncated 70 kDa form of E-cadherin (p70), endogenous, from DLD1 cells (human, UniProt P12830 463-882, Ser/Thr residues found to be single O-mannosylated (mass spectrometry of AT1636-precipitated p70)); assay: immunoprecipitation from DLD1 lysate, western blot, densitometry
T1 construct: range 463-C-terminus; also called p70 E-cadherin; 70 kDa protein
T1 sequence (looked up): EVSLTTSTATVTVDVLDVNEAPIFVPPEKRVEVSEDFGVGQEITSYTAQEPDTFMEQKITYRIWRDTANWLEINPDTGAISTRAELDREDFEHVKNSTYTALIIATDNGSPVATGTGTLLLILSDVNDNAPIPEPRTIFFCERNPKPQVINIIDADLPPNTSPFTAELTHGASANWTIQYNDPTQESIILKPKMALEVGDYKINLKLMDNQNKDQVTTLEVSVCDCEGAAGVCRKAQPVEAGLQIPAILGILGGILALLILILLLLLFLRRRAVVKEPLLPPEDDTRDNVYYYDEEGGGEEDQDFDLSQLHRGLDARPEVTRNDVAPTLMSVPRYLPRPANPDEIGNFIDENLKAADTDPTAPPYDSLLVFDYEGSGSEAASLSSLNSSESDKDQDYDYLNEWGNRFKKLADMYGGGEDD
Description: The specific binding of AT1636 to p70 E-cadherin was confirmed by western blot. AT1636 reactivity was compared to the commercially available EP700Y (Abcam, rabbit antibody) and a mouse antibody specific for the cytoplasmic domain of E-cadherin (clone 36/E, BD Biosciences). […] The E-cadherin antibody immunoprecipitation was performed from DLD1 cells with equal amounts of lysate (10 mg) and antibodies (2,5 μg). Input (40 μg) and IP samples (all) were run on SDS-PAGE and transferred to PVDF membrane (Bio-Rad) for immunoblotting. Using the antibody binding the intracellular domain of E-cadherin as well as the EP700Y antibody, the full length (120 kDa) E-cadherin as well as the 70 kDa protein were immunoprecipitated, while AT1636 mainly immunoprecipitated the 70 kDa protein (FIG. 2b). Thus AT1636 preferentially binds p70 over full length E-cadherin as shown by the enrichment for p70 over full length E-cadherin. Upon densitometric quantification of the signals, we find a 7-fold enrichment of p70 over full length in the AT1636 IP, compared to the EP700Y IP.

[2] = molecular target: T2, full length E-cadherin (about 120 kDa), on human cells or from their lysate (human, UniProt P12830 155-882, O-mannosylated in cells that express TMTC3, as the filing describes); assay: flow cytometry on DLD1 cells with TMTC3 shRNA against scrambled shRNA control
T2 construct: whole, on cells; also called CDH1; CD324
T2 sequence (looked up): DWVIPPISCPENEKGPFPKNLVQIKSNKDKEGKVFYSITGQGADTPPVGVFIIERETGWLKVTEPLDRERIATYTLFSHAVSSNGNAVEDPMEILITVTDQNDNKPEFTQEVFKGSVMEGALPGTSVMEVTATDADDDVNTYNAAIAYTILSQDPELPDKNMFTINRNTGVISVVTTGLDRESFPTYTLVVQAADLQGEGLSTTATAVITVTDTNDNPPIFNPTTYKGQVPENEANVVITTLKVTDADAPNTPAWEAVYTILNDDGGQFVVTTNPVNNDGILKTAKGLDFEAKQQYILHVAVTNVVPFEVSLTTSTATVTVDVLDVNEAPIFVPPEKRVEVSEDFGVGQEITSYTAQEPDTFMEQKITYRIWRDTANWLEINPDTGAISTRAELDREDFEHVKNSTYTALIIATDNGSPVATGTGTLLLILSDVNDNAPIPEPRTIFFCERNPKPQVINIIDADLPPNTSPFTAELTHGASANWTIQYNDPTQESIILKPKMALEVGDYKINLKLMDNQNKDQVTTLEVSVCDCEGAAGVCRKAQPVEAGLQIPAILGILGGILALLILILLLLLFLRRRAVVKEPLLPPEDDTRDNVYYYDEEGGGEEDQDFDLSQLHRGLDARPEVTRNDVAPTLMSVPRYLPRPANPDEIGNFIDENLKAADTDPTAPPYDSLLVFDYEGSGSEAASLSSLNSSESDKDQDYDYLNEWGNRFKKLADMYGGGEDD

[3] = molecular target: T3, mouse E-cadherin on CMT93 cells (mouse, UniProt P09803 157-884); assay: flow cytometry on mouse CMT93 cells
T3 construct: whole, on cells
T3 sequence (looked up): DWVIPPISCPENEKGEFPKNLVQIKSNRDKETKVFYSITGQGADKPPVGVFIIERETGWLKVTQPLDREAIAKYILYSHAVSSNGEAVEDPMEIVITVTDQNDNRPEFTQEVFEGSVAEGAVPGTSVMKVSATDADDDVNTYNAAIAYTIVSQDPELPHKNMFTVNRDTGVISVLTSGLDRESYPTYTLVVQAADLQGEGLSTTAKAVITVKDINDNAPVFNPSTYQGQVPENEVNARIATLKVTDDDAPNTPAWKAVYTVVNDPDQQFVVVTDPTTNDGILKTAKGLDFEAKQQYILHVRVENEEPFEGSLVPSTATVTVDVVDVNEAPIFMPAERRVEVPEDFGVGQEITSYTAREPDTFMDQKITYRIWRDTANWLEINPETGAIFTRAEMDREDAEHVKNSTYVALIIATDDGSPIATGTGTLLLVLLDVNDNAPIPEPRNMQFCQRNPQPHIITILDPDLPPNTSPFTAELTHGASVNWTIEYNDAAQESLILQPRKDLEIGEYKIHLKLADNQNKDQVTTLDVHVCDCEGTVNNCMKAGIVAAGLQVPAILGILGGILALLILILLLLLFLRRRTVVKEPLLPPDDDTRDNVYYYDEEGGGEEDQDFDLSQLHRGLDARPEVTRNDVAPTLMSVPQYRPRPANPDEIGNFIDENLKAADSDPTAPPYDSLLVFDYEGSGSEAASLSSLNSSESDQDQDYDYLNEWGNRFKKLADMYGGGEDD

[4] = molecular target: T4, recombinant soluble p70 E-cadherin mouse-Fc fusion protein (human, UniProt P12830 463-709); assay: ELISA on captured p70 E-cadherin mFc
T4 construct: range 463-end of the extracellular domain; Made in Expi293 or CHO cells; also called 70 kDa; human p70 E-cadherin-mouseFc-biotin; not shown: FLAG tag on a mouse Fc-tail equipped with a sortase and HIS tag
T4 sequence (looked up): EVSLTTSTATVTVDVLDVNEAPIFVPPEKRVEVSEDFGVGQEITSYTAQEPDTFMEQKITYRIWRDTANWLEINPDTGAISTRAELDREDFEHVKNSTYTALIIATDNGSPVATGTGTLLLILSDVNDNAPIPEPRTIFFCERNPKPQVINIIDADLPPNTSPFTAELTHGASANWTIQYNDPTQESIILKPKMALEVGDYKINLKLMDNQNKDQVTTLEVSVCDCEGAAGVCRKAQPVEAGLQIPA
Description: (§1) TABLE 4 Calculation of the fold-increase in binding of the AT1636 variants compared to the parental AT1636 wild-type antibody to the Full-Length and p70 E-cadherin and the E-cadherin D3 mutated protein. EC₅₀ values were determined using Prism software. Fold increase in binding compared to AT1636 wild-type antibody
(§2) Recombinant E-cadherin mFc proteins were captured on 96-well plates (Costar) using goat-anti-mouse IgG Fcy antibodies (Jackson). […] Bound antibodies were visualized using a TMB substrate (Sigma) and the reaction was stopped with H₂SO₄(Merck) and quantified by OD450 measurement using an Envision plate reader (Perkin Elmer). As shown in FIG. 7b (two left panels), similar increased binding of AT1636-YN and -IYN antibody variants in comparison to AT1636 antibody was observed by ELISA to full length E-cadherin and p70. […] Here SC10.17, a humanized EC1 domain specific E-cadherin antibody binds full length E-cadherin but not the p70 truncated variant. Of note, all tested antibodies AT1636 variants, as well as AT1636 wild type, bind the truncated 70 kDa form of E-cadherin better than full length E-cadherin.

[5] = molecular target: T5, recombinant soluble full length E-cadherin (without transmembrane and intracellular domains) mouse-Fc fusion … (human, UniProt P12830 155-709); assay: ELISA on captured full length E-cadherin mFc
T5 construct: extracellular domain; Made in Expi293 or CHO cells; A C-tag-only version is also described; the ELISA used the mFc proteins; also called E-cadherin mFc; not shown: FLAG tag on a mouse Fc-tail equipped with a sortase and HIS tag
T5 sequence (looked up): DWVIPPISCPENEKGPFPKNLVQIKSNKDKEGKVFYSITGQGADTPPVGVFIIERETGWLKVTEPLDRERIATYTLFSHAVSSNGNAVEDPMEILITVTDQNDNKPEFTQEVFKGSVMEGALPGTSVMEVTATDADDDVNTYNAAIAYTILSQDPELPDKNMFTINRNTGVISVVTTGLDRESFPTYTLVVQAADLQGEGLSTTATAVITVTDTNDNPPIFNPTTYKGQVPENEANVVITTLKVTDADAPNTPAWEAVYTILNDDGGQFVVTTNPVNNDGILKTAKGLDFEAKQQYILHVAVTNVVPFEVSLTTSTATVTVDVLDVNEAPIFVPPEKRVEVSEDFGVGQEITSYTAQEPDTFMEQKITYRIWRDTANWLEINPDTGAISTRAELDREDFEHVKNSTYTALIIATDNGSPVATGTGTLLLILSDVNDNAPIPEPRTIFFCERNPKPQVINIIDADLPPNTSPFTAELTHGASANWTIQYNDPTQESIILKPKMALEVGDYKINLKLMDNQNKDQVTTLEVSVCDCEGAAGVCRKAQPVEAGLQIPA
Description: as §1, §2

fold enrichment of p70 over full length E-cadherin in the IP, compared to the EP700Y IP [1] [fold]	fold reduction in binding after TMTC3 knock-down [2] [fold]	binding result [3]	fold increase in binding compared to AT1636 wild-type antibody (ratio of ELISA EC50 values) [4] [fold]	fold increase in binding compared to AT1636 wild-type antibody (ratio of ELISA EC50 values) [5] [fold]	Binder
7	> 3	–	–	–	AT1636 (antibody, V domains shown, The original 7G02 antibody is IgG3; also called AT1636 wild-type; AT1636-wt) VH: EVQLVESGGGLVKPGGSLRLSCAASGFTFSNAWMNWVRQAPGKGLEWVGRIKSKIDGGTTEYTTPVKGRFTISRDDSKDTVYLHMKRLKTEDTAVYYCTPGVGANDPYYFDRWGQGVLVTVSS VL: not shown
–	–	binds	56.5	28.4	AT1636-YN (antibody, human IgG1, V domains shown, also called -NY; AT1636-NY) VH: EVQLVESGGGLVKPGGSLRLSCAASGFTFSYAWMNWVRQAPGKGLEWVGRIKSKIDGGTTEYTTPVKGRFTISRDDSKDTVYLHMKRLKTEDTAVYYCTPGVGANNPYYFDRWGQGVLVTVSS VL: not shown
–	–	binds	28.6	34.3	AT1636-IYEN (antibody, human IgG1, V domains shown) VH: EVQLVESGGGLVKPGGSLRLSCAASGFIFSYAWMNWVRQAPGKGLEWVGRIKSKIDGETTEYTTPVKGRFTISRDDSKDTVYLHMKRLKTEDTAVYYCTPGVGANNPYYFDRWGQGVLVTVSS VL: not shown
–	–	–	0.2	0.5	AT1636-E (antibody, human IgG1, V domains shown, also called G63E) VH: EVQLVESGGGLVKPGGSLRLSCAASGFTFSNAWMNWVRQAPGKGLEWVGRIKSKIDGETTEYTTPVKGRFTISRDDSKDTVYLHMKRLKTEDTAVYYCTPGVGANDPYYFDRWGQGVLVTVSS VL: not shown
–	–	–	2	2.6	AT1636-I (antibody, human IgG1, V domains shown, also called T29I) VH: EVQLVESGGGLVKPGGSLRLSCAASGFIFSNAWMNWVRQAPGKGLEWVGRIKSKIDGGTTEYTTPVKGRFTISRDDSKDTVYLHMKRLKTEDTAVYYCTPGVGANDPYYFDRWGQGVLVTVSS VL: not shown
–	–	–	4.5	6	AT1636-N (antibody, human IgG1, V domains shown, also called D112N) VH: EVQLVESGGGLVKPGGSLRLSCAASGFTFSNAWMNWVRQAPGKGLEWVGRIKSKIDGGTTEYTTPVKGRFTISRDDSKDTVYLHMKRLKTEDTAVYYCTPGVGANNPYYFDRWGQGVLVTVSS VL: not shown
–	–	binds	67.1	64.3	AT1636-IYN (antibody, human IgG1, V domains shown) VH: EVQLVESGGGLVKPGGSLRLSCAASGFIFSYAWMNWVRQAPGKGLEWVGRIKSKIDGGTTEYTTPVKGRFTISRDDSKDTVYLHMKRLKTEDTAVYYCTPGVGANNPYYFDRWGQGVLVTVSS VL: not shown
–	–	–	6.6	6.5	AT1636-Y (antibody, human IgG1, V domains shown, also called N36Y) VH: EVQLVESGGGLVKPGGSLRLSCAASGFTFSYAWMNWVRQAPGKGLEWVGRIKSKIDGGTTEYTTPVKGRFTISRDDSKDTVYLHMKRLKTEDTAVYYCTPGVGANDPYYFDRWGQGVLVTVSS VL: not shown
